From paper PMC4339303

What was measured:
Assay in all cases: proximity ligation
[1] = target: double-mutant V5-RTEL1^C1252A/C1255A (mouse) (mouse)
[2] = target: single-mutant V5-RTEL1^R1237H (mouse) (mouse)
[3] = target: full-length WT V5-RTEL1 (mouse) (mouse)
Sequence of full-length WT V5-RTEL1 (mouse) (mouse) (Q0VGM9 whole entry): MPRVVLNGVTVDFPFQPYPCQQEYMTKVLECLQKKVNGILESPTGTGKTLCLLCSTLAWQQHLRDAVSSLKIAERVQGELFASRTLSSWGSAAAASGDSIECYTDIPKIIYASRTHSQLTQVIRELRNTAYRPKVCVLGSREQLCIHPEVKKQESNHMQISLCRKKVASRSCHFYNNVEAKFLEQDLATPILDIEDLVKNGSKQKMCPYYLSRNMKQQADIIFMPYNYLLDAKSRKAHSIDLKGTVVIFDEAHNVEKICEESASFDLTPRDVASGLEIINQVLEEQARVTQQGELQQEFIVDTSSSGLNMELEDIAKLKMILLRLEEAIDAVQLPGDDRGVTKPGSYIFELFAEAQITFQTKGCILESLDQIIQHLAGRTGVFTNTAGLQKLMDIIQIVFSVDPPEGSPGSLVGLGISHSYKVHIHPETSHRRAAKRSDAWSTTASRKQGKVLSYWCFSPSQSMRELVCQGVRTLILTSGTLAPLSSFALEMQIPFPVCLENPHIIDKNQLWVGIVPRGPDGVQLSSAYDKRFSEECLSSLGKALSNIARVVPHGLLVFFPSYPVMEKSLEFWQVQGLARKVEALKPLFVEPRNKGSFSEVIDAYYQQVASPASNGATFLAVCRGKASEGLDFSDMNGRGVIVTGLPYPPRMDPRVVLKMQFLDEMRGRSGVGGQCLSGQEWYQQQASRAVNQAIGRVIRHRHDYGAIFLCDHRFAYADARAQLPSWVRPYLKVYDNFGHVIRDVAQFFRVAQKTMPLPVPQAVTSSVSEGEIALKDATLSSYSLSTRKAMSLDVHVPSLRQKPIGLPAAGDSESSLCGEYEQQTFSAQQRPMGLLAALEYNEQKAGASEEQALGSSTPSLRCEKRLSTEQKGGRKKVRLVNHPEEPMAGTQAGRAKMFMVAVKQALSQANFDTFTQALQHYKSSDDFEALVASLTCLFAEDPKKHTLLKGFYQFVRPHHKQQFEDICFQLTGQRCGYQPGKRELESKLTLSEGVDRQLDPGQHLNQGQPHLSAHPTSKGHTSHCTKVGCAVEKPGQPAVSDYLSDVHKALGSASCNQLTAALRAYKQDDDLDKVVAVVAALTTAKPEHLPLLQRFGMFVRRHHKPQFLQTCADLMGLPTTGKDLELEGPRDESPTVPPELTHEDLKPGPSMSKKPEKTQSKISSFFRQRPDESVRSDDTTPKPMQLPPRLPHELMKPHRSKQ

endogenous PCNA (proliferating cell nuclear antigen) (from UniProt P17918 1-261) (natural protein)
PLA foci per nucleus (PLA foci per nucleus) [1]: 11.6
PLA foci per nucleus (PLA foci per nucleus) [2]: 13.4
PLA foci per nucleus (foci per nucleus) [3]: 11.5
